Measured values as given in patent US20220211858A1, “TUBULAR SUPRAMOLECULAR POLYMERS” (priority 2019, published 2022).

How the values were obtained:
[1] = test system: HT-29 cells; experiment: Antitumor efficacy of SAPDs at near MTD on a HT-29 tumor model; settings: for mean tumor volume: day 28, SAPD 1 12 mg/kg, SAPD 2-4 36 mg/kg i.v. days 1, 5, 9, irinotecan 100 mg/kg i.p. days 1, 8, 15
Procedure: Antitumor efficacy study of SAPDs at near MTD on a HT-29 tumor model. HT-29 tumor model was established as described above. When the averaged tumor size reached 70-110 mm^3, mice were randomly divided into six groups (n=5 for each group). Four different SAPDs were all i.v. dosed at near or slightly lower than their estimated MTDs. […] The irinotecan (i.p. injection, 100 mg/kg at days 1, 8 and 15) and the PBS groups were used as controls. All other protocols were similar to those in the above-mentioned efficacy study.

[2] = CD measurement of SAPD stability in plasma/serum environments; assay type: physicochemical, rat; settings: 200 μM in rat plasma, FBS, mice plasma, aged overnight
Procedure: CD measurement of SAPDs in physiological environments. Stock solutions of SAPDs were prepared at 2 mM and aged overnight. The solutions were diluted to 200 μM in 10% fetal bovine serum (FBS), 10% mice plasma and 10% rat plasma, aged overnight before CD measurement. To study the kinetic stability of the assembled SAPDs upon dilution, the stock solutions of SAPD 1 and 2 were diluted to 100 μM, 50 μM, 25 μM, 10 μM, and 5 μM in 10% rat plasma. The CD spectra were recorded at 5 min, 1 h, 4 h, and 12 h. All the CD spectra were recorded from 300 to 450 nm using a 1 mm path length quartz cell. The spectra were collected and normalized from ellipticity (mdeg) to molar ellipticity (deg·cm2·dmol^−1).
Stability of SAPDs in Protein Environments. The interactions of nanoparticles with serum proteins are known to impact the disassociation of supramolecular assemblies in biologically relevant environment. To assess the stability of assembled SAPDs in more complex biological media, we performed CD experiments to investigate their long-term stability in various serum environments. SAPDs solutions (2 mM) were diluted using rat plasma (FIG. 21C), fetal bovine serum (FBS), and mice plasma to yield a final concentration of 200 μM, which were then aged overnight before CD measurement was taken. […] We also performed experiments to assess their kinetic stability upon plasma dilution, mimicking the dissociation process of SPs after intravenous injection. Solutions of SAPD 1 and 2 (2 mM) were diluted to 100 μM, 50 μM, 25 μM, 10 μM, and 5 μM in rat plasma, and time-dependent CD spectra were recorded at 5 min, 1 h, 4 h, and 12 h. […] At 12 h, the decrease reached 22% and 33%, respectively.

[3] = Maximum tolerated dose (MTD) dose escalation study; assay type: in vivo, athymic nude mice; settings: for Maximum % BW loss: n=3
Procedure: Maximum tolerated dose (MTD) studies. MTD of SAPD 1 has been previously determined in our lab (Table 1). MTDs of other SAPDs were determined by dose escalation studies in healthy female athymic nude mice (Charles River, 12-13 weeks old). A single intravenous (i.v.) injection of SAPD was dosed at day 1 and the body weights of each mouse (n=3) were recorded every day for six days and every the other day until two weeks. The dosing volume was determined based upon a ratio of 200 μL for a 20 g mouse. Doses of SAPDs used in the studied were 108, 72, 54, 45, 36 and 18 mg/kg (CPT equivalent).

[4] = Circulation studies of SAPDs in rats; assay type: in vivo, Sprague Dawley (SD) rats; settings: 10 mg/kg i.v.
Procedure: Circulation studies of SAPDs in rats. Female Sprague Dawley (SD) Rats (200-250 g) were randomly grouped into four groups with three rats in each group. SAPDs were all intravenously (i.v.) dosed at 10 mg/kg (CPT equivalent). The dosing volumes of SAPDs were estimated by a ratio of 1 mL for a 200 g rat. The blood samples were collected at 5 min, 15 min, 30 min, 1 h, 2 h, 4 h, 8 h, and 12 h, which were immediately centrifuged to take plasma for further analysis and stored at −80° C. The plasma proteins were precipitated using similar protocols as mentioned above in drug release section and the determination of SAPDs and free CPT in the plasma by UPLC also used the same conditions.
Estimation of SAPD concentration in plasma upon injection. To calculation the concentration after dilution, we simply set the following parameters: body weight of mice (20 g), dosing volume of mice (200 μL), blood volume of mice (1.8 mL), body weight of rat (200 g), dosing volume of mice (1 mL), blood volume of mice (18 mL) and the dosage for both mice and rats (10 mg/kg).

[5] = female, athymic nude, mouse, in vivo, iv, single i.v. injection, CPT equivalent, healthy athymic nude mice
[6] = single i.v. dose 18 mg/kg (CPT equivalent)
[7] = single i.v. dose 36 mg/kg (CPT equivalent)
[8] = single i.v. dose 45 mg/kg (CPT equivalent)
[9] = single i.v. dose 54 mg/kg (CPT equivalent)
[10] = single i.v. dose 72 mg/kg (CPT equivalent)

| SMILES | mean tumor volume [1] [mm^3] | change of CD absorptions versus aqueous solution [2] | Survival/Total ([3]; single i.v. dose 18 mg/kg) | day of maximum BW loss ([3]; single i.v. dose 18 mg/kg) [days] | Maximum % BW loss [3, 6] [%] | Survival/Total ([3]; single i.v. dose 36 mg/kg) | day of maximum BW loss ([3]; single i.v. dose 36 mg/kg) [days] | Maximum % BW loss [3, 7] [%] | Survival/Total ([3]; single i.v. dose 45 mg/kg) | day of maximum BW loss ([3]; single i.v. dose 45 mg/kg) [days] | Maximum % BW loss [3, 8] [%] | Survival/Total ([3]; single i.v. dose 54 mg/kg) | day of maximum BW loss ([3]; single i.v. dose 54 mg/kg) [days] | Maximum % BW loss [3, 9] [%] | Survival/Total ([3]; single i.v. dose 72 mg/kg) | day of maximum BW loss ([3]; single i.v. dose 72 mg/kg) [days] | Maximum % BW loss [3, 10] [%] | Survival/Total ([3]; single i.v. dose 108 mg/kg) | total CPT concentration in plasma ([4]; 1 h) [µM] | total CPT concentration in plasma ([4]; 2 h) [µM] | also measured |
| --- | --- | --- | --- | --- | --- | --- | --- | --- | --- | --- | --- | --- | --- | --- | --- | --- | --- | --- | --- | --- | --- |
| CC[C@]1(OC(=O)OCCSSC[C@@H](NC(C)=O)C(=O)N[C@@H](CCCCNC(=O)[C@@H](CSSCCOC(=O)O[C@]2(CC)C(=O)OCc3c2cc2n(c3=O)Cc3cc4ccccc4nc3-2)NC(C)=O)C(=O)N[C@@H](CCCCNC(=O)CCOCCOCCOCCOCCOC)C(=O)N[C@@H](CCCCNC(=O)CCOCCOCCOCCOCCOC)C(=O)N[C@@H](CCCCNC(=O)CCOCCOCCOCCOCCOC)C(=O)N[C@@H](CCCCNC(=O)CCOCCOCCOCCOCCOC)C(N)=O)C(=O)OCc2c1cc1n(c2=O)Cc2cc3ccccc3nc2-1 [SAPD 2] | 330 | no noticeable changes | 3/3 | 5 | 6.2 | 3/3 | 6 | 2.1 | 3/3 | 2 | 4.0 | 3/3 | 2 | 3.5 | 2/3 | 2 | 11.4 | 0/3 | 7.0 | 2.2 | treatment related death ([1]; 36 mg/kg i.v. days 1, 5, 9, n=5): one treatement related death; MTD at 2 weeks [3, 5]: 54 mg/kg; CPT remained in the bounded form ([4]; 5 min): 28% |
| CC[C@]1(OC(=O)OCCSSC[C@@H](NC(C)=O)C(=O)N[C@@H](CCCCNC(=O)[C@@H](CSSCCOC(=O)O[C@]2(CC)C(=O)OCc3c2cc2n(c3=O)Cc3cc4ccccc4nc3-2)NC(C)=O)C(=O)N[C@@H](CCCCNC(=O)CCOCCOCCOCCOCCOC)C(=O)N[C@@H](CCCCNC(=O)CCOCCOCCOCCOCCOC)C(=O)N[C@@H](CCCCNC(=O)CCOCCOCCOCCOCCOC)C(=O)N[C@@H](CCCCNC(=O)CCOCCOCCOCCOCCOC)C(=O)N[C@@H](CCCCNC(=O)CCOCCOCCOCCOCCOC)C(=O)N[C@@H](CCCCNC(=O)CCOCCOCCOCCOCCOC)C(N)=O)C(=O)OCc2c1cc1n(c2=O)Cc2cc3ccccc3nc2-1 [SAPD 3] | 322 | some slight changes | 3/3 | 4 | 5.5 | 3/3 | 4 | 1.4 | 3/3 | 4 | 2.5 | 3/3 | 1 | 1.6 | 3/3 | – | 0 | 2/3 | 2.8 | 1.3 | MTD [3, 5]: 72 mg/kg |
| CC[C@]1(OC(=O)OCCSSC[C@@H](NC(C)=O)C(=O)N[C@@H](CCCCNC(=O)[C@@H](CSSCCOC(=O)O[C@]2(CC)C(=O)OCc3c2cc2n(c3=O)Cc3cc4ccccc4nc3-2)NC(C)=O)C(=O)N[C@@H](CCCCNC(=O)CCOCCOCCOCCOCCOC)C(=O)N[C@@H](CCCCNC(=O)CCOCCOCCOCCOCCOC)C(=O)N[C@@H](CCCCNC(=O)CCOCCOCCOCCOCCOC)C(=O)N[C@@H](CCCCNC(=O)CCOCCOCCOCCOCCOC)C(=O)N[C@@H](CCCCNC(=O)CCOCCOCCOCCOCCOC)C(=O)N[C@@H](CCCCNC(=O)CCOCCOCCOCCOCCOC)C(=O)N[C@@H](CCCCNC(=O)CCOCCOCCOCCOCCOC)C(=O)N[C@@H](CCCCNC(=O)CCOCCOCCOCCOCCOC)C(N)=O)C(=O)OCc2c1cc1n(c2=O)Cc2cc3ccccc3nc2-1 [SAPD 4] | 408 | some slight changes | 3/3 | 5 | 3.1 | 3/3 | 2 | 7.2 | 3/3 | – | 0 | 3/3 | 3 | 3.9 | 2/3 | 1 | 1.2 | 1/3 | 4.7 | 1.0 | MTD [3, 5]: 72 mg/kg |
